The target in test [1] is GFP-binding nanobody Enhancer (camelid). As to the kind of experiment: Molecular Force Assay (Protein-MFA); multiplexed measurement of Fig. 2B: nanobody on the glass slide, sfGFP on the DNA reference; references compared: unmodified 40 bp DNA, 40 bp DNA with propynyl bases, 20 bp DNA with polyamide P1, P2 or P3 (1 uM); pH 7.4; read-out NF.
Test [2] shares this target. Nature of the test: Molecular Force Assay (Protein-MFA); Enhancer covalently on the glass slide via its C-terminus (PEG linker); GFP attached at its N-terminus to the DNA reference; reference 20 bp DNA stabilized with polyamide P1; one contact process with a single stamp; retraction 1 um/s; read-out Normalized Fluorescence (NF), 0.5 = protein bond as strong as the reference.

Sequence of GFP-binding nanobody Enhancer (camelid) (heavy, as listed by the source): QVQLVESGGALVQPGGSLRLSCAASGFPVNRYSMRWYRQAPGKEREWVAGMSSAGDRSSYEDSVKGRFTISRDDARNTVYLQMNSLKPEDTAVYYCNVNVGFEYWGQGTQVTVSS

As for “superfolder GFP (from UniProt P42212 1-238) (natural protein)”, the Normalized Fluorescence (NF), 40 bp DNA reference with propynyl bases in test [1] is 0.8. Also, the Normalized Fluorescence (NF), 20 bp DNA reference with polyamide P1 in test [2] worked out at 0.353.

Values taken from article PMC4278885.
